In patent US20220073643A1 (NANJING GENSCRIPT BIOTECH, published 2022):
Where a chain is given by its changes, count along the chain named.

B1: 267B2C5 (antibody, V domains shown)
VH: QVQLKESGPGLVAPSQSLAITCTVSGFSLTTYGVSWVRQPPGKGLEWLGVIWGDGSTHYHSALISRLSIRKDNSKSQVFLKVNSLQTDDTATYYCGKPGRGNAMDYWGQGTSVTVSS
VL: DIVMTQSPSSLTVTAGEKVTMSCKSSQSLLNSGNQKNYLTWYQQKPGQSPKLLIYWASTRESGVPDRFTGSGSGTDFTLTISSVQAEDLAVYYCQNDYIYPLTFGGGTTLELK
B2: 286C7F11 (antibody, V domains shown)
VH: QVQLKESGPGLVAPSQSLSITCTVSGFSLTDYGVSWIRQPPGKGLEWLGVIWNRGNTYYNSALKSRLSISKDNSKSQVFLRMNSLQTDDTAMYYCAKHDFLRFLDYWGQGTTLTVSS
VL: B1 VL with I2V, S49P, L52I, T78S, S82T, Q95L, I99Y, G106A, T109K
B3: 292D9C7 (antibody, V domains shown)
VH: B2 VH with N53G, R54G, T57A, R81K, Q86R, H98N, D99G, F100L, F103Y, T111S
VL: B1 VL with I2T, S49P, T75R, A86V, V91I, I99Y, G106A, T109K, L110V
B4: 370E2B12C3 (antibody, V domains shown)
VH: QVQLKESGPGLVAPSQSLSITCTVSGFSLTTYGVHWVRQPPGKGLEWLGVIWAGGSTNYNSALMSRVSINKDNSKSQVFIKMNSLQADDTALYYCARAAYYGNGLDYWGQGTTLTVSS
VL: B1 VL with S28T, S49P, R60G, Y93F, D97A, I99F, L102F, T109K, L112I
B5: 273F3D4 (antibody, V domains shown)
VH: B1 VH with A19S, S28A, V82L, G96A
VL: B1 VL with T5S, V84M, G106A, T109M
B6: 263E9F3 (antibody, V domains shown)
VH: EIQVQQSGPELMKPGASVKISCRSSGYSFTSYYIHWVKQSRGKSLEWIGYIDPFSGGTRYNQKFEGKATLTVDKSSTTAYMHLSSLTSEDSAVYYCASLRFFAYWGQGTLVTVSA
VL: DIVMTQSPSSLTVTAGEKVTMTCKSSQSLLNSGNQENYLTWYQQKPGQPPELLISRASTRQSGVPDRFTGSGSGTDFTLTISSVQTEDLAVYYCQNDYSYPLTFGAGTKLELK
B7: 198F10B8 (antibody, V domains shown)
VH: QAYLQQSGAELVRSGASVRMSCKASGYTFSSYNMHWVKQTPGQGLEWIGYIYPGNGGTNYNQKFKDKATLTADTSSSTAFIQISSLTSEDSAVYFCLTGRGFAYWGQGTLVTVSA
VL: B1 VL with K18R, L30F, S49P, W56R, I99S, G106V, T109K
B8: 196A12B10 (antibody, V domains shown)
VH: QIQWVQSGPELKKPRETVKISCKASGYTFTDYSMHWVKQAPGKGLKWMGWINSETGEATYADDFRGRFALSLETSATTAFLQINSLKNEDTGTYFCARFYYGNSFASWGQGTTLTVSS
VL: DIVMTQFPSSLTVTAGEKVTMTCKSSQSLLNGGNQKNYLTWYQQKPGLPPKLLIYWASTRESGVPDRFTGSGSGTEFTLTISSVQAEDLAVYYCQNNYYFPLTFGAGTKLELK
B9: 259C6F7 (antibody, V domains shown)
VH: QAYLQQSGAELVRSGASVKMSCKASGYTFSSHNIHWVKQTPGQGLEWIGYIYPGNGDTNYNQKFKGKATLTADTSSSTAYMQISSLTSEDSAVYFCARDYYGNSFVYWGQGTLVTVSA
VL: DIVMIQSPSSLTEKAGEKVSMSCKSSQSLLNSGNQKNYLTWYQQKPGQPPKLLIYWASTRESGVPDRFTGSGSGTDFTLTISSVQAEDLAVYYCQNAYRFPFTFGAGTKLELK
B10: 279E8B8 (antibody, V domains shown)
VH: B9 VH with M20I, S30A, I34M, D57G, N59K, K65T, T71S, M81L, Y101F
VL: B9 VL with I5T, S22R, E87D, A97D, R99M, F100Y
B11: 275B2G2 (antibody, V domains shown)
VH: EVMLVESGGGLVKPGGSLKLSCAASGFTFRDYTMSWVRQTPEKRLEWVATSIIGGTYTYYPDSVKGRFTISRDNVKNTLYLQMSSLRSEDTAMYYCSRLGRGNAMDYWGQGTSVTVSS
VL: B1 VL with S49P, I99S, L102F, G106S, T109K, L112I
B12: 273C10E5 (antibody, V domains shown)
VH: QVQLQQSGAELVKPGASVKLSCKASGYTFTSFGINWLRQRPEQGLEWIGWIFPGDGNSKYNENFKGKATLTTDKSSSTAYMQVTRLTSEDSAVYFCARFYYGNSFANWGQGTLVTVSA
VL: B1 VL with S49P, S58A, T69A, I99F, L102F, G106A, T109K
B13: 266B11F7 (antibody, V domains shown)
VH: QVQMKESGPGLVAPSQSLSITCTVSGFSLTTYGVTWVRQPPGKGLEWLGVIWGDGSTNYHSALTSRLRISKDKSKSQVFLKLSSLQTDDTATYYCAKPGRGNALDYWGQGTSVTVSS
VL: B1 VL with S22R, S49P, I54V, I81V, Y100F, G106A, T109K
B14: 265E6G2 (antibody, V domains shown)
VH: B9 VH with S30T, H32Y, I34M, D57G, V106A
VL: B1 VL with I2L, S49P, S83N, V84I, I99S, T103P, G106A, T109K, K113R
B15: 277F1F8 (antibody, V domains shown)
VH: B9 VH with A9P, S30T, I34M, Y52N, D57G, T58N, V106A, Y107F
VL: B9 VL with I5T, K14T, A97D
B16: 280F3B6 (antibody, V domains shown)
VH: B9 VH with S30T, I34M, D57G, A97T, V106A
VL: B9 VL with I5T, K18R, L30F, A97D, R99W, F100Y
B17: 275H9A2 (antibody, V domains shown)
VH: B9 VH with K23R, T28S, S30T, I34M, D57G, T58S, N59Y, T69I, A97T
VL: B9 VL with I2V, I5T, A15T, V84L, A86T, A97N, Y98F, F100Y
B18: 391F1G2 (antibody, V domains shown)
VH: DVQLVESGGGLVQPGGSRKLSCAASGFTFSSFGMHWVRQAPEKGLEWVAYISSGSSPIYYADTVKGRFTISRDNPKNTLFLQMTSLRSEDTAMYFCARIYYGNSFAYWGQGTLVTVSA
VL: B1 VL with T20A, S28T, S49P, I54L, D97A, I99Y, G106S, T109K
B19: 260F8A6 (antibody, V domains shown)
VH: B9 VH with K23R, S30T, I34M, D57N, N59Y, S77N, S84N, A97V
VL: B9 VL with I2V, I5T, A15T, T69I, V84L, A86T, A97N, R99M, F100Y
B20: 271B1B6 (antibody, V domains shown)
VH: B9 VH with S30T, S31N, H32Y, D57G, T58N, N59Y, S77I, V106A
VL: B1 VL with S22N, S49P, V91I, I99Y, G106A, T109K
B21: 268D7H9 (antibody, V domains shown)
VH: B9 VH with S30T, S31N, H32Y, D57G, T58N, N59Y, V106A
VL: B1 VL with V3A, S22N, S49P, V91I, I99Y, G106A
B22: 262C7C10 (antibody, V domains shown)
VH: B9 VH with S30T, S31N, H32Y, D57G, T58N, N59Y, S77I, V106A
VL: B1 VL with S22N, S49P, V91I, I99Y, G106A, T109K
B23: 260G9E8 (antibody, V domains shown)
VH: B9 VH with Y3D, S30A, I34M, D57G, N59K, K65T, S84T, V106A
VL: B9 VL with I5T, S22R, E87D, A97D, R99M
B24: 267H5F12 (antibody, V domains shown)
VH: B9 VH with S30T, I34M, Y52S, D57Y, K65R, A97T, V106T
VL: B9 VL with I5T, K18R, L30F, D76E, A97N, R99W
B25: 262H9H6 (antibody, V domains shown)
VH: B9 VH with S30T, I34M, Y52S, D57Y, K65R, A97T, V106T
VL: B9 VL with I5T, K18R, L30F, D76E, A97N, R99W
B26: 392A11C8 (antibody, V domains shown)
VH: B18 VH with S31G, V37I, A40T, S56R, I99F, A106D, Y107H
VL: B9 VL with I5T, S10F, E13V, K14T, S20T, K24R, V91L, R99S, F102L
B27: 391H11H3 (antibody, V domains shown)
VH: B18 VH with S31G, V37I, A40T, S56R, K65Q, I99F, A106D, Y107H, A118S
VL: B9 VL with I5T, S10F, E13V, K14T, S20T, V91L, R99S, F102L

molecular target: human Claudin18.2 (human); experiment: cell-based or functional assay

CDC % Relative activity [%]	CDC EC50 [mg/L]	Binder
142	1.21	B1
107	1.52	B2
151	1.14	B3
379	0.453	B4
105	1.56	B5
116	1.48	B6
526	0.3	B7
93.6	1.69	B8
117	1.27	B9
129	1.27	B10
98.4	1.66	B11
67.6	2.41	B12
97.4	1.77	B13
526	0.327	B14
106	1.54	B15
121	1.35	B16
142	1.15	B17
176	1.47	B18
129	1.15	B19
145	1.12	B20
140	1.23	B21
520	0.331	B22
164	1.05	B23
172	1	B24
183	0.941	B25
133	1.95	B26
125	2.07	B27
